B1: SMG5 (parent)
chain: FVSIAQSEQESLLQQAQAQFRMAQ

Variants of: B1
Assay: protein stability index of a GFP-peptide fusion (GPS, HEK-293T) (PSI 1-6); higher = more stable
Details: c terminus: a fixed tail appended
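Also: lentivirally expressed fusions sorted by FACS into six bins by GFP to DsRed ratio, PSI derived from sequencing read proportions per bin multiplied by bin number.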

| Variant | protein stability index |
| --- | --- |
| FVSIAQSEQESLLQQYQAQFRMAQ [A16Y] | 1.86 |
| FVSIAQSEQESLRQQAQAQFRMAQ [L13R] | 2.07 |
| FVSIAQSEQESLMQQAQAQFRMAQ [L13M] | 2.66 |
| FVSIAQSEQESLHQQAQAQFRMAQ [L13H] | 3.08 |
| FVSIAQSEQESLNQQAQAQFRMAQ [L13N] | 2.74 |
| FVSIAQSEQESLPQQAQAQFRMAQ [L13P] | 3.08 |
| FVSIAQSEQESLQQQAQAQFRMAQ [L13Q] | 2.6 |
| FVSIAQSEQESLDQQAQAQFRMAQ [L13D] | 3 |
| FVSIAQSEQESLWQQAQAQFRMAQ [L13W] | 2.19 |
| FVSIAQSEQESLEQQAQAQFRMAQ [L13E] | 2.13 |
| FVSIAQSEQESLTQQAQAQFRMAQ [L13T] | 2.28 |
| FVSIAQSEQESLIQQAQAQFRMAQ [L13I] | 2.87 |
| FVSIAQSEQESLAQQAQAQFRMAQ [L13A] | 2.14 |
| FVSIAQSEQESLFQQAQAQFRMAQ [L13F] | 1.5 |
| FVSIAQSEQESLKQQAQAQFRMAQ [L13K] | 2.52 |
| FVSIAQSEQESLVQQAQAQFRMAQ [L13V] | 2.68 |
| FVSIAQSEQESLCQQAQAQFRMAQ [L13C] | 2.88 |
| FVSIAQSEQESLYQQAQAQFRMAQ [L13Y] | 1.31 |
| FVSIAQSEQESLSQQAQAQFRMAQ [L13S] | 2.74 |
| FVSIAQSEQESTLQQAQAQFRMAQ [L12T] | 2.54 |
| FVSIAQSEQESMLQQAQAQFRMAQ [L12M] | 2.44 |
| FVSIAQSEQESCLQQAQAQFRMAQ [L12C] | 2.17 |
| FVSIAQSEQESQLQQAQAQFRMAQ [L12Q] | 2.66 |
| FVSIAQSEQESYLQQAQAQFRMAQ [L12Y] | 1.61 |

| Variant | protein stability index |
| --- | --- |
| FVSIAQSEQESSLQQAQAQFRMAQ [L12S] | 2.21 |
| FVSIAQSEQESILQQAQAQFRMAQ [L12I] | 2.53 |
| FVSIAQSEQESFLQQAQAQFRMAQ [L12F] | 2.02 |
| FVSIAQSEQESHLQQAQAQFRMAQ [L12H] | 2.72 |
| FVSIAQSEQESALQQAQAQFRMAQ [L12A] | 2.69 |
| FVSIAQSEQESNLQQAQAQFRMAQ [L12N] | 2.64 |
| FVSIAQSEQESDLQQAQAQFRMAQ [L12D] | 3.33 |
| FVSIAQSEQESKLQQAQAQFRMAQ [L12K] | 2.4 |
| FVSIAQSEQESGLQQAQAQFRMAQ [L12G] | 2.12 |
| FVSIAQSEQESELQQAQAQFRMAQ [L12E] | 2.48 |
| FVSIAQSEQESPLQQAQAQFRMAQ [L12P] | 2.48 |
| FVSIAQSEQESWLQQAQAQFRMAQ [L12W] | 1.75 |
| FVSIAQSEQESRLQQAQAQFRMAQ [L12R] | 2.4 |
| FVSIAQSEQESVLQQAQAQFRMAQ [L12V] | 2.31 |
| FVSIAQSEQCSLLQQAQAQFRMAQ [E10C] | 2.07 |
| FVSIAQSEQRSLLQQAQAQFRMAQ [E10R] | 2.2 |
| FVSIAQSEQVSLLQQAQAQFRMAQ [E10V] | 2.85 |
| FVSIAQSEQWSLLQQAQAQFRMAQ [E10W] | 2.89 |
| FVSIAQSEQSSLLQQAQAQFRMAQ [E10S] | 1.61 |
| FVSIAQSEQKSLLQQAQAQFRMAQ [E10K] | 1.87 |
| FVSIAQSEQASLLQQAQAQFRMAQ [E10A] | 1.89 |
| FVSIAQSEQFSLLQQAQAQFRMAQ [E10F] | 2.2 |
| FVSIAQSEQTSLLQQAQAQFRMAQ [E10T] | 1.52 |
| FVSIAQSEQQSLLQQAQAQFRMAQ [E10Q] | 2.54 |

| Variant | protein stability index |
| --- | --- |
| FVSIAQSEQDSLLQQAQAQFRMAQ [E10D] | 2.19 |
| FVSIAQSEQNSLLQQAQAQFRMAQ [E10N] | 2.03 |
| FVSIAQSEQYSLLQQAQAQFRMAQ [E10Y] | 1.89 |
| FVSIAQSEQMSLLQQAQAQFRMAQ [E10M] | 1.43 |
| FVSIAQSEQISLLQQAQAQFRMAQ [E10I] | 1.73 |
| FVSIAQSEQLSLLQQAQAQFRMAQ [E10L] | 2.14 |
| FVSIAQSEQGSLLQQAQAQFRMAQ [E10G] | 1.6 |
| FVSIAQSEQPSLLQQAQAQFRMAQ [E10P] | 1.96 |
| FVSIAQSEQHSLLQQAQAQFRMAQ [E10H] | 1.95 |
| FVSIAQSEDESLLQQAQAQFRMAQ [Q9D] | 2.15 |
| FVSIAQSEWESLLQQAQAQFRMAQ [Q9W] | 1.67 |
| FVSIAQSELESLLQQAQAQFRMAQ [Q9L] | 3.25 |
| FVSIAQSEYESLLQQAQAQFRMAQ [Q9Y] | 1.21 |
| FVSIAQSESESLLQQAQAQFRMAQ [Q9S] | 2.02 |
| FVSIAQSEPESLLQQAQAQFRMAQ [Q9P] | 1.63 |
| FVSIAQSEHESLLQQAQAQFRMAQ [Q9H] | 2.2 |
| FVSIAQSEGESLLQQAQAQFRMAQ [Q9G] | 1.95 |
| FVSIAQSEIESLLQQAQAQFRMAQ [Q9I] | 1.67 |
| FVSIAQSERESLLQQAQAQFRMAQ [Q9R] | 1.85 |
| FVSIAQSENESLLQQAQAQFRMAQ [Q9N] | 2.08 |
| FVSIAQSETESLLQQAQAQFRMAQ [Q9T] | 2.9 |
| FVSIAQSEMESLLQQAQAQFRMAQ [Q9M] | 2.02 |
| FVSIAQSEVESLLQQAQAQFRMAQ [Q9V] | 1.91 |
| FVSIAQSEEESLLQQAQAQFRMAQ [Q9E] | 2.25 |

| Variant | protein stability index |
| --- | --- |
| FVSIAQSEFESLLQQAQAQFRMAQ [Q9F] | 2.32 |
| FVSIAQSEKESLLQQAQAQFRMAQ [Q9K] | 1.73 |
| FVSIAQSECESLLQQAQAQFRMAQ [Q9C] | 3.07 |
| FVSIAQSEQESLLQQAEAQFRMAQ [Q17E] | 2.22 |
| FVSIAQSEQESLLQQARAQFRMAQ [Q17R] | 3.07 |
| FVSIAQSEQESLLQQADAQFRMAQ [Q17D] | 2.37 |
| FVSIAQSEQESLLQQAKAQFRMAQ [Q17K] | 2.33 |
| FVSIAQSEQESLLQQANAQFRMAQ [Q17N] | 2.33 |
| FVSIAQSEQESLLQQACAQFRMAQ [Q17C] | 1.76 |
| FVSIAQSEQESLLQQAPAQFRMAQ [Q17P] | 3.35 |
| FVSIAQSEQESLLQQAAAQFRMAQ [Q17A] | 1.95 |
| FVSIAQSEQESLLQQALAQFRMAQ [Q17L] | 2.04 |
| FVSIAQSEQESLLQQAGAQFRMAQ [Q17G] | 2.17 |
| FVSIAQSEQESLLQQAFAQFRMAQ [Q17F] | 1.85 |
| FVSIAQSEQESLLQQAYAQFRMAQ [Q17Y] | 1.8 |
| FVSIAQSEQESLLQQAWAQFRMAQ [Q17W] | 1.39 |
| FVSIAQSEQESLLQQAMAQFRMAQ [Q17M] | 2.13 |
| FVSIAQSEQESLLQQATAQFRMAQ [Q17T] | 1.73 |
| FVSIAQSEQESLLQQAIAQFRMAQ [Q17I] | 2.02 |
| FVSIAQSEQESLLQQASAQFRMAQ [Q17S] | 2.48 |
| FVSIAQSEQESLLQQAHAQFRMAQ [Q17H] | 1.91 |
| FVSIAQSEQESLLQQAVAQFRMAQ [Q17V] | 2.03 |

— the supplement of paper PMC10567573
